Assay results published in article PMC6711944, “Structural insights into the species preference of the influenza B virus NS1 protein in ISG15 binding” (Protein & Cell, 2018).

T1: NS1B-NTR (1-103), N-terminal region of the influenza B virus NS1 protein (influenza B virus, UniProt P03502 1-103)
T1 construct: not shown: GST, N-terminal, cleaved
T1 sequence: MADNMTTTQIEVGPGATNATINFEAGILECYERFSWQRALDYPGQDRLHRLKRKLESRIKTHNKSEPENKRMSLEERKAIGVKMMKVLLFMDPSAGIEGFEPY

B1: mISG15-Q74A-N75A (natural protein)
chain: MAWDLKVKMLGGNDFLVSVTNSMTVSELKKQIAQKIGVPAFQQRLAHQTAVLQDGLTLSSLGLGPSSTVMLVVAASSEPLSILVRNERGHSNIYEVFLTQTVDTLKKKVSQREQVHEDQFWLSFEGRPMEDKELLGEYGLKPQCTVIKHLRLRGG
notes: not shown: GST, N-terminal, cleaved
B2: bISG15-Q76A-N77A (natural protein)
chain: MGGDLTVKMLGGQEILVPLRDSMTVSELKQFIAQKINVPAFQQRLAHLDSREVLQEGVPLVLQGLRAGSTVLLVVAASISILVRNDKGRSSPYEVQLKQTVAELKQQVCQKERVQADQFWLSFEGRPMDDEHPLEEYGLMKGCTVFMNLRLRGG
notes: as for B1
B3: NS1B-NTR, containing the 103 N-terminal residues of NS1B (influenza B virus NS1 protein) (domain or fragment)
chain: T1 sequence
notes: the same region as in the cited hISG15/NS1B-NTR structure PDB 3RT3

Experiments:
[1] = biological target: T1, NS1B-NTR (1-103), N-terminal region of …; experiment: ITC; about 0.5 mM ISG15 injected into 250 ul of 0.05 mM NS1B-NTR in the cell, 20 aliquots of 2 ul; 25 °C; 10 mM HEPES-sodium, 500 mM NaCl, pH 7.2; MicroCal iTC200; 'one set of sites' fitting model; settings: both partners purified
hISG15-L10A = biological target: T2, hISG15-L10A (human, UniProt P05161 1-157, L10A); experiment: ITC; isothermal titration calorimetry of NS1B-NTR and ISG15 proteins; which was titrated and the conditions are not told in the text shown; settings: both partners purified
T2 construct: Mutant of m2

murine ISG15 = biological target: T3, murine ISG15 (murine, UniProt Q64339 1-155); experiment: as above; settings: both partners purified
T3 construct: also called mISG15

human ISG15 = biological target: T4, human ISG15 (human, UniProt P05161 1-157); experiment: as above; settings: both partners purified
T4 construct: also called hISG15

[2] = biological target: T5, hISG15 with the first two linker residues (Asp76, Lys77) converted to alanine (human, UniProt P05161 1-157, Asp76 to alanine | Lys77 to alanine); experiment: as above; settings: both partners purified
T5 construct: also called the mutated hISG15

bovine ISG15 = biological target: T6, bovine ISG15 (bovine, UniProt O02741 1-154); experiment: as above; settings: both partners purified
T6 construct: also called bISG15

canine ISG15 = biological target: T7, canine ISG15 (canine, UniProt A0A8I3P342 1-174); experiment: as above; settings: both partners purified
T7 construct: also called cISG15

[3] = biological target: the molecule itself; experiment: crystal structure; crystal structures of NS1B-NTR in complex with mISG15, cISG15 or bISG15

T7 sequence (A0A8I3P342 entry or part of it): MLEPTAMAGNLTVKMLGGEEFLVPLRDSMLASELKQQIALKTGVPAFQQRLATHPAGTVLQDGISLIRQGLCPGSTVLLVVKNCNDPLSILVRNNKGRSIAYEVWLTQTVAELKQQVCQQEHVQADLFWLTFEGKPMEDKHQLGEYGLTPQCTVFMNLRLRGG
T4 sequence (P05161 1-157): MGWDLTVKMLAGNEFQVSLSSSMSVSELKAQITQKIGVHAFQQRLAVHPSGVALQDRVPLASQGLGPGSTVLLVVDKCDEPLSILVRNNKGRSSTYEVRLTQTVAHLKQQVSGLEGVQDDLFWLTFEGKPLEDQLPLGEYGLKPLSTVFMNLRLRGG
T5 sequence (P05161 other isoform, or with tags, fused parts or gaps with the stated changes): as the sequence (P05161 1-157) above, with D76A, K77A counted along it
T2 sequence (P05161 1-157 L10A): as the sequence (P05161 1-157) above, with L10A counted along it

Binder	Kd [1]	Kd (hISG15-L10A)	Kd (murine ISG15)	stoichiometry N (murine ISG15)	Kd (human ISG15)	stoichiometry N (human ISG15)	Kd [2]	Kd (bovine ISG15)	stoichiometry N (bovine ISG15)	Kd (canine ISG15)	stoichiometry N (canine ISG15)	stoichiometry N [3]
B1	6 µM	–	–	–	–	–	–	–	–	–	–	–
B2	10 µM	–	–	–	–	–	–	–	–	–	–	–
B3	–	17 µM	13 µM	1	0.28 µM	1	5 µM	12 µM	1	34 µM	1	2
